Source: patent US20240131068A1 (KITE PHARMA, published 2024)

T1: native CD19 expressed on NALM6 tumor cells (UniProt P15391 20-556)
T1 construct: whole, on cells; also called CD19^+ NALM6; NALM6-wt
T1 sequence (looked up): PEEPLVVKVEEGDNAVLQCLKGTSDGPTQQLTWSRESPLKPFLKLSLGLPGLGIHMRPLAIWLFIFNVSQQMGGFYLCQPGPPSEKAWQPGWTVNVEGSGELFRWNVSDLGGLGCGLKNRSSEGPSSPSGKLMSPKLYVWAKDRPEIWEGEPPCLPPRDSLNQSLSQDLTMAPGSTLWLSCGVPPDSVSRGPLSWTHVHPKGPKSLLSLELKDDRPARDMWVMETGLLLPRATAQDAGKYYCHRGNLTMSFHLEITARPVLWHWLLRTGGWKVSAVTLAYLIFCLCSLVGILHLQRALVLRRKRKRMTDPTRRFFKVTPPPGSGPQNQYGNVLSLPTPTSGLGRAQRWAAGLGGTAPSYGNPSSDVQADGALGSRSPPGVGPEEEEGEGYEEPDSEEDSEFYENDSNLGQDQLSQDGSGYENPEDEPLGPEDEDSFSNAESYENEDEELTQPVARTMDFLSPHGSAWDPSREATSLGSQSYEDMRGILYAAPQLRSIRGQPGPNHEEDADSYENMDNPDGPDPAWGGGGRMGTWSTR


Legend:
[1] = target: T1, native CD19 expressed on NALM6 tumor …; assay: screen of scFv clones on CD19^+ NALM6 cells, Nalm6-CD19KO cells as negative control
Excerpt: To ensure that the up to (30) clones could recognize native CD19 expressed on tumor cells, the clones (scFv) were also screened against NALM6 tumor cell line positive (+) CD19 expression (NALM6 cell line+CD19). CD19 knockout Nalm6 cell line (NALM6 cell line⁻ CD1; or CD19KO Nalm6 cell line) were used as a negative control for the selection. CD19KO Nalm6 cell lines used for the screen were engineered CRISPR knocked-out (KO) Nalm6-CD19KO cells. Clones that bound CD19⁺ NALM6 tumor cells, but not CD19-NALM6 tumor cells (CD19K0) were selected (Step 4).

SIGLEC 7 = SIGLEC 7 (UniProt Q9Y286 19-467, limits assumed); assay: counter-selection of scFv clones against baculovirus and SIGLEC 7, 8 and 9
Excerpt: (§1) These up to 30 scFv clones were further screened based on their ability to bind baculovirus or SIGLEC. Clones that bound biotinylated baculovirus or SIGLEC 7, 8 and 9 were removed from consideration.

SIGLEC 8 = SIGLEC 8 (UniProt Q9NYZ4 17-499, limits assumed); assay: as above
Excerpt: as §1

SIGLEC 9 = SIGLEC 9 (UniProt Q9Y336 18-463, limits assumed); assay: as above
Chain of SIGLEC 9 (Q9Y336 18-463 limits assumed): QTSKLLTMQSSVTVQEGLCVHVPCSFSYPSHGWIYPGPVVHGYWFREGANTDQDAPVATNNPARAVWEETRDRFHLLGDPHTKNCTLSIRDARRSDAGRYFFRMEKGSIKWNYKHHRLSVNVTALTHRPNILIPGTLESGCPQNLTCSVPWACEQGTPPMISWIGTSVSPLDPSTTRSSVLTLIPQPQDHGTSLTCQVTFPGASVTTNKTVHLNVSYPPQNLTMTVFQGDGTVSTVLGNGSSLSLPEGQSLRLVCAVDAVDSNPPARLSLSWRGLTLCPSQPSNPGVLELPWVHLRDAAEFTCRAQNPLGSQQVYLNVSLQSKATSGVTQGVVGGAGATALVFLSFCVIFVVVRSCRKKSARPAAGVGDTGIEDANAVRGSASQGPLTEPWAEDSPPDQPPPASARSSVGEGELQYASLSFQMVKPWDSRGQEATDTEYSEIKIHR
Excerpt: as §1

Chain of SIGLEC 7 (Q9Y286 19-467 limits assumed): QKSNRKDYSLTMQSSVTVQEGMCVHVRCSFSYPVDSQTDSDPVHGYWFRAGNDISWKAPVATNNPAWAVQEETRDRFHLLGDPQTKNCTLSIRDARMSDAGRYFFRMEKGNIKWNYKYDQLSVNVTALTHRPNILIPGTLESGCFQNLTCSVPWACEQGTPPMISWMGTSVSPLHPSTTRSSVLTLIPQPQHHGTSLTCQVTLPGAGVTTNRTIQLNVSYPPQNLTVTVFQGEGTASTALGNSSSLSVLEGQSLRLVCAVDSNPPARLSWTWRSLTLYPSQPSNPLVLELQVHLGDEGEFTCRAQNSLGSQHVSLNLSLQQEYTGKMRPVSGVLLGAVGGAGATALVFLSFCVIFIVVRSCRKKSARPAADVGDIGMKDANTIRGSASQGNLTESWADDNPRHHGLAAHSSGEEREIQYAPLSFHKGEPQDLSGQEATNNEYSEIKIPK
Chain of SIGLEC 8 (Q9NYZ4 17-499 limits assumed): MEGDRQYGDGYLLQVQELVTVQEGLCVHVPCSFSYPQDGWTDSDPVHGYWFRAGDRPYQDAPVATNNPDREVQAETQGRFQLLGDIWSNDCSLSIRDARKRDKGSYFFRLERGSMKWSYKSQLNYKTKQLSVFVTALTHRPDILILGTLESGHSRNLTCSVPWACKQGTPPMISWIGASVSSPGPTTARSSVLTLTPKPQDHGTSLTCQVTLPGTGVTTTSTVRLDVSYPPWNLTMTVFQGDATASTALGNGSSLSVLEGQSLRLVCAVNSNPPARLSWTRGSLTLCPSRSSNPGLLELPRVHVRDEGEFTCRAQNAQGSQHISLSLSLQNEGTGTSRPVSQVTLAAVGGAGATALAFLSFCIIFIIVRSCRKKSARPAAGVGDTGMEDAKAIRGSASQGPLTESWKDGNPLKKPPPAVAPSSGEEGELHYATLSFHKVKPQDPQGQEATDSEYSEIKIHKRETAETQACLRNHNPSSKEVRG

| binding result [1] | other results | Binder |
| --- | --- | --- |
| binds | – | CD19 7 scFv (P5) (scFv, scFv clone from the display library, screened as a library clone; also called 46; clone 46) scFv: DIQMTQSPSSLSASVGDRVTITCRASQSISKYLNWYQQKPGKAPKLLIYDASSLQSGVPSRFSGSGSGTDFTLTISSLQPEDFATYYCQQSYTIPLTFGQGTKVEIKGGGGSGGGGSGGGGSQVQLVQSGAEVKKPGSSVKVSCKASGGTFSSYAFSWVRQAPGQGLEWMGGIVPLFGAVEYAQKFQGRVTITADESTSTAYMELSSLRSEDTAVYYCAREKGFYRYFDHWGQGTLVTVSS |
| binds | – | CD19 18 scFv (P11) (scFv, scFv clone from the display library, screened as a library clone; also called 52; clone 52) scFv: QSVLTQPPSVSGAPGQRVTISCTGSSSNIGAGYDVHWYQQLPGTAPKLLIYGTKNRPSGVPDRFSGSKSGTSASLAITGLQAEDEADYYCQSYDVRLKGWVFGGGTKLTVLGGGGSGGGGSGGGGSQLQLQESGPGLVKPSETLSLTCTVSGGSITSSSYYWGWIRQPPGKGLEWIGSIYYTGTTYYNPSLKSRVTISVDTSKNQFSLKLSSVTAADTAVYYCARYVGLSGGFDYWGQGTLVTVSS |
| binds | – | CD19 23 scFv (P12) (scFv, scFv clone from the display library, screened as a library clone; also called 53; clone 53) scFv: DIQMTQSPSSLSASVGDRVTITCRASQSIYSYLNWYQQKRGKAPKLLIYDASSLQSGVPSRFSGSGSGTDFTLTISSLQPEDFATYYCQQSYTAPPTFGQGTKVEIKGGGGSGGGGSGGGGSEVQLLESGGGLVQPGGSLRLSCAASGFTFSNYAMSWVRQAPGKGLEWVSAISESGHGTYYADSVKGRFTISRDNSKNTLYLQMNSLRAEDTAVYYCARLDWAGFDVWGQGTLVTVSS |
| binds | – | CD19 11 scFv (P7) (scFv, scFv clone from the display library, screened as a library clone; also called 48; clone 48) scFv: DIQMTQSPSSLSASVGDRVTITCRASQSISSYLNWYQQKPGKAPKLLIYAASSLQSGVPSRFSGSGSGTDFTLTISSLQPEDFATYYCQQTGAVPYTFGQGTKVEIKGGGGSGGGGSGGGGSEVQLLESGGGLVQPGGSLRLSCAASGFTFRDYAMSWVRQAPGKGLEWVSAISESGIDTYYADSVKGRFTISRDNSKNTLYLQMNSLRAEDTAVYYCARVAGYDSDSSTYYDYMDVWGQGTLVTVSS |
| binds | – | CD19 16 scFv (P10) (scFv, scFv clone from the display library, screened as a library clone; also called 51; clone 51) scFv: QSVLTQPPSVSGAPGQRVTISCTGSSSNIGAGYDVHWYQQLPGTAPKLLIYGNNNRPSGVPDRFSGSKSGTSASLAITGLQAEDEADYYCQSYDVSLGVWVFGGGTKLTVLGGGGSGGGGSGGGGSQLQLQESGPGLVKPSETLSLTCTVSGGSISSPSYYWGWIRQPPGKGLEWIGSIYYTGATYYNPSLKSRVTISVDTSKNQFSLKLSSVTAADTAVYYCARYGPAGVGFDYWGQGTLVTVSS |
| binds | – | CD19 10 scFv (P6) (scFv, scFv clone from the display library, screened as a library clone; also called 47; clone 47) scFv: DIQMTQSPSSLSASVGDRVTITCRASQTISRYLNWYQQKPGKAPKLLIYAASSLQSGVPSRFSGSGSGTDFTLTISSLQPEDFATYYCQQSYRPPLTFGQGTKVEIKGGGGSGGGGSGGGGSEVQLLESGGGLVQPGGSLRLSCAASGFTFSSYAMSWVRQAPGKGLEWVSTISAGGHGTYYADSVKGRFTISRDNSKNTLYLQMNSLRAEDTAVYYCARGAGYFDYWGQGTLVTVSS |
| binds | – | CD19 14 scFv (P8) (scFv, scFv clone from the display library, screened as a library clone; also called 49; clone 49) scFv: DIQMTQSPSSLSASVGDRVTITCRASQSISNYLNWYQQKPGKAPKLLIYAASSLQSGVPSRFSGSGSGTDFTLTISSLQPEDFATYYCQQAYSAPITFGQGTKVEIKGGGGSGGGGSGGGGSEVQLLESGGGLVQPGGSLRLSCAASGFTFGDYAMSWVRQAPGKGLEWVSAISRGGHGTYYADSVKGRFTISRDNSKNTLYLQMNSLRAEDTAVYYCARLVGYGLDYWGQGTLVTVSS |
| binds | binding result (SIGLEC 7): no binding; binding result (SIGLEC 8): no binding; binding result (SIGLEC 9): no binding | CD19 E7 scFv (P4) (scFv, scFv clone from the display library, screened as a library clone; also called 45; clone 45) scFv: DIQMTQSPSSLSASVGDRVTITCRASQDITRYLNWYQQKPGKAPKLLIYAASSLQSGVPSRFSGSGSGTDFTLTISSLQPEDFATYYCQQSYSYPPTFGQGTKVEIKGGGGSGGGGSGGGGSQVQLVESGGGVVQPGRSLRLSCAASGFTFRDYGMHWVRQAPGKGLEWVAVISYEGSNEYYADSVKGRFTISRDNSKNTLYLQMNSLRAEDTAVYYCARDRGFAGWYDYAFDPWGQGTLVTVSS |
| binds | – | CD19 15 scFv (P9) (scFv, scFv clone from the display library, screened as a library clone; also called 50; clone 50) scFv: DIQMTQSPSSLSASVGDRVTITCRASQPIRPYLNWYQQKPGKAPKLLIYDASSLQSGVPSRFSGSGSGTDFTLTISSLQPEDFATYYCQQSYSAPYTFGQGTKVEIKGGGGSGGGGSGGGGSEVQLLESGGGLVQPGGSLRLSCAASGFTFSSYAMSWVRQAPGKGLEWVSVISGGGANTYYADSVKGRFTISRDNSKNTLYLQMNSLRAEDTAVYYCARDWRYFDHWGQGTLVTVSS |
